# Measurements taken from publication PMC2885798.
# What was measured:
# [1] = biological target: nesprin-1α fragment SLR2-7 (full-length nesprin-1α minus the transmembrane domain) (human); assay: dynamic light scattering
# [2] = biological target: nesprin-1α fragment SLR2-7ΔAD (SLR2-7 with the adaptive domain deleted) (human); assay: dynamic light scattering
Substance,stoichiometry N [1],stoichiometry N [2]
nesprin-1α fragment SLR2-7 (full-length nesprin-1α minus the transmembrane domain) (domain or fragment),2,–
nesprin-1α fragment SLR2-7ΔAD (SLR2-7 with the adaptive domain deleted) (domain or fragment),–,2
